“Also recorded” adds a separate entry of the source.
T1: I domain of α11β1 (Homo sapiens, UniProt Q9UKX5)
T1 construct: An in-house generated I domain of α11β1 was used; made in house
T1 sequence (Q9UKX5 164-345 limits assumed): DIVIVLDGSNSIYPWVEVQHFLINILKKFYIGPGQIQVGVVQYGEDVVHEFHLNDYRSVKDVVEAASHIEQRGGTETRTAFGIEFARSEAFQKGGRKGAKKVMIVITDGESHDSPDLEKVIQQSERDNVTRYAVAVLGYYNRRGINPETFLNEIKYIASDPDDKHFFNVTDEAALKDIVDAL

B1: 24E4G6: rat anti-α11β1 mAb; VH SEQ ID NO: 147, VL SEQ ID NO: 148 (antibody, V domains shown)
VH: MELELSLIFIFSLLKDVQCEVQLVESGGSLVQPGGSLKLSCVASGYTFSNYWMDWVRQSPGKSLEWIGEINTDGRRTNYAPSIKDRFTISRDNAKSTLYLQMSNVKSDDTAIYYCTILRVYPHYFDYWGQGVMVTVSS
VL: MMSPAQFLFLLMLWIQEARGDVVMTQTPPSLSVAIGQSVSISCKSSQSLVYSDGETYLHWFLQSPGRSPKRLIYHVSNLGSGVPDRFSGTGSLTDFTLRISRVEAEDLGVYYCAQTTHFPPTFGAGTKLELK
B2: 16G7: rabbit anti-α11β1 mAb; heavy chain SEQ ID NO: 159, light chain SEQ ID NO: 160 (antibody)
heavy: METGLRWLLLVAVFKGVQCQEQLVESGGDLVKPGASLTLTCTASGFSFNKNYWMCWVRQAPGKGLEWIGCIYNGDGNTYYASWVNGRFTISKTSSTTVTLQMTSLTVADTAIYFCARLLNMWGPGTLVTVSSGQPKAPSVFPLAPCCGDTPSSTVTLGCLVKGYLPEPVTVTWNSGTLTNGVRTFPSVRQSSGLYSLSSVVSVTSSSQPVTCNVAHPATNTKVDKTVAPSTCSKPMCPPPELPGGPSVFIFPPKPKDTLMISRTPEVTCVVVDVSQDDPEVQFTWYINNEQVRTARPPLREQQFNSTIRVVSTLPIAHQDWLRGKEFKCKVHNKALPAPIEKTISKARGQPLEPKVYTMGPPREELSSRSVSLTCMINGFYPSDISVEWEKNGKAEDNYKTTPTVLDSDGSYFLYSKLSVPTSEWQRGDVFTCSVMHEALHNHYTQKSISRSPGK
light: MDTRAPTQLLGLLLLWLPGARCADIVMTQTPASVEAAVGGTVTIKCQASESIGNALAWYQQKPGQPPKLLIYTAATLASGVPSRFSGSGSGTEFTLTISGVQCDDAATYYCQSYYFTSVSSYGNAFGGGTEVVVKGDPVAPTVLIFPPAADQVATGTVTIVCVANKYFPDVTVTWEVDGTTQTTGIENSKTPQNSADCTYNLSSTLTLTSTQYNSHKEYTCKVTQGTTSVVQSFNRGDC
B3: 3-G5: mouse anti-α11β1 mAb; VH SEQ ID NO: 135, VL SEQ ID NO: 136 (antibody, V domains shown)
VH: QVQLQQSGAELARPGASVKLSCKASGYTFTSYGISWVKQRTGQGLEWIGEIFPRSSNTYYNEKFKGKATLTADKSSSTVYMEFRSLTSEDSAVYFCAREGGLAWFAYWGQGTLVTVSA
VL: DVVMTQTPLTLSVTIGQPASISCKSSQSLLYTNGNTYLNWLLQRPGQSPKRLIYLVSKLDSGIPDRFSGSGSGTDFTLRISRVEAEDLGVYYCLQSTHFPFTFGSGTKLEIK
B4: 10-F23: mouse anti-α11β1 mAb; VH SEQ ID NO: 125, VL SEQ ID NO: 126 (antibody, V domains shown)
VH: QVTLKESGPGILQPSQTLSLTCSFSGFSLSTFAMGVGWIRQPSGKGLEWLAHIWWDDDKYYNPALKSRLTISKDTSKNHVFLKIANVDTADTATYYCARMPLTFYFDYWGQGTTLTVSS
VL: DVLLTQTPLSLPVSLGDQASISCRSSQSIVHSNGHTYLEWYLQKPGQSPKLLIYKVSNRFSGVPDRFSGSGSGTDFTLKISRVEAEDLGVYYCFQGSHVPFTFGGGTKLEIK
B5: 6-O12: mouse anti-α11β1 mAb; VH SEQ ID NO: 117, VL SEQ ID NO: 118 (antibody, V domains shown)
VH: EVKLEESGGGLVQPGGSMKLSCAASGFTFSDAWMDWVRQSPEAGLEWVAEIRNKAHNPATYYAESVKGRFTISRDDSKSSVYLQMNSLRAEDTGIYYCTLVAPDAMDYWGQGTSVTVSS
VL: DIVMSLSPSSLAVSVGEKVTMSCKSSQSLLYSRNQKNYLAWYQQKPGQSPKLLIYWASTRASGVPDRFTGSGSGTDFTLTISSVKAEDLAVYYCQQYYSYPYTFGGGTKLEIK
B6: 6-B21: mouse anti-α11β1 mAb; VH SEQ ID NO: 123, VL SEQ ID NO: 124 (antibody, V domains shown)
VH: EVQLQQSGPELVKPGASVKISCKASGYTFTDYYMNWVKQSHGKSLEWIGDINPHNGGTSFIQKFKGKATLTVDKSSSTAYMELRSLTSEDSAVYYCAPLGRKEGFAYWGQGTLVTVSA
VL: DTVLTQSPASLVVSLGQRATISCRASKSVSTSGYSYMHWYQQKPGQPPKLLIYLASNLESGVPARFSGSGSGTAFTLNIHPVEEEDAATYYCQHSRELPYTFGGGTKLEIK

Key:
human α11β1 = human α11β1 (Homo sapiens, UniProt Q9UKX5); experiment: ELISA binding to recombinant human α11β1; details: binding Yes/No
Procedure: (§1) 0.25 μg/mL of target antigen (recombinant human or mouse α11β1) was plated in a 96-well plate over night at 4° C. Plates were washed (PBS with 0.1% Tween-20), blocked (PBS with 2% BSA and 0.05% Tween-20) for 1 hour at room temperature and incubated with a range of antibody concentrations for 1 hour at room temperature. Subsequently, plates were washed and incubated with biotinylated anti-rabbit/mouse/human IgG in a 1:1000 dilution buffer and incubated for 1 hour at room temperature. After washing the plates, Streptavidin HRP was added at 1:200 in dilution buffer and incubated for 1 hour at room temperature. Ultra TMB ELISA substrate solution was added and the plates incubated for 5 minutes on a plate shaker. The reaction was stopped by adding stop solution to each well and plates were read at 450 nm.

I domain of α11β1 = target: T1, I domain of α11β1; experiment: ELISA binding to in-house generated I domain of α11β1; details: for I Domain binding: Yes/No
Procedure: as §1
22 Data was also collected to determine whether antibodies of interest bind to the I domain of α11β1. An in-house generated I domain of α11β1 was used. […] Mouse antibodies 10-F23, 10-L15, 7-O8, 6-A12, 9-G05 and 9-E16 and rabbit antibodies 7-H12 and 2-D3 were also tested for binding against the in-house generated α11031 domain. FIGS. 3A and 3B show graphs illustrating binding data from exemplary mAbs.

myofibroblasts (MF) = experiment: FACS antibody binding to myofibroblasts; set-up: species or system human; details: binding Yes/No
Procedure: Human Pulmonary Fibroblasts (ScienCell) were cultured in complete Fibroblast Growth Medium (ScienCell) until 80% confluent in T-150 flasks. Cells were washed and harvested using Accutase. Cells were seeded into T-150 flasks at 7,500 cells/cm^2 in complete FGF and cultured for 72 hours. Cells were then washed and starved in serum reduced medium for 24 hours. After starvation, cells were treated with TGFβ-1 (R&D Systems) for 72 hours. Cells were harvested using Accutase and seeded in 96-well conical bottom plates. Cells were blocked with Heat Inactived Fetal Bovine Serum (Gibco) for 30 minutes at 4° C. Cells were then incubated with anti-α11 antibodies at the doses described in each figure for 30 minutes at 4° C. A human anti-α11 antibody (Creative BioLabs) was included as a positive control as well as the appropriate IgG isotype negative controls. Cells were washed twice and incubated with PE conjugated secondary antibodies specific to the IgG class of the anti-α11 antibodies being tested for 30 minutes at 4° C. Cells were washed twice and fixed in 1% PFA for 30 minutes. Cells were acquired on a FACS Verse […]. Data were analyzed by gating on single cells and determining the geometric Mean Fluorescence Intensity (gMFI) in the PE channel for each sample.
Binding to a physiologically relevant primary human cell type was also tested. Human pulmonary fibroblasts (HPF) and TGFβ treatment were used to induce a fibroblast-to-myofibroblast transition (FMT), giving rise to myofibroblasts (MF). […] Additionally, HPFs express α11 and α2β1, other collagen binding receptors, which means that HPFs can be to test cross-reactivity of antibodies of interest.

[1] = system: CHO-K1 cells expressing human α11; experiment: Cell adhesion inhibition (xCelligence), type I collagen; format: cell-based; details: for inhibition of cell adhesion to type I collagen: CHO-K1 hu α11 cells; for Inhibition of CHO-K1 adhesion to collagen: Yes/No
Method in brief: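 CHO-K1 cells expressing human α11 (0.6×10^6 cells/mL) were preincubated with mAbs across a concentration range for 20 min at 37° C, then seeded on wells coated with 100 ng/mL type I collagen and blocked with 3% BSA. Impedance-based adhesion was recorded over 6 h, and maximum adhesion was compared with untreated control.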

mouse α11β1 = mouse α11β1 (Mus musculus, UniProt P61622); experiment: ELISA binding to recombinant mouse α11β1; details: binding Yes/No
Procedure: as §1

[2] = system: Human Pulmonary Fibroblasts; experiment: Fibroblast-to-Myofibroblasts Transition (FMT), αSMA expression; format: cell-based; details: for inhibition of αSMA expression / FMT: TGFβ-induced FMT; for Inhibition of FMT: Yes/No
Procedure: Human Pulmonary Fibroblasts (ScienCell) were cultured in complete Fibroblast Growth Medium (ScienCell) until 80% confluent. Cells were washed and harvested using Accutase. Cells were seeded onto tissue culture-treated 96 well plates at 20,000 cells/well in complete Fibroblast Growth Medium. After 24 hours, cells were washed and starved in serum reduced medium for an additional 24 hours. After starvation, cells were treated with TGFβ-1 (R&D Systems) with or without anti-α11 antibodies. A polyclonal rabbit anti-human α11 antibody was used as a positive control. Appropriate IgG isotype controls were also included. After 48 hours, cells were harvested, fixed, permeabilized and stained with AlexaFluor488 Labeled Anti-αSMA (α-smooth muscle actin) (Invitrogen). Cells were acquired on a FACS Verse (Benton Dickson) to determine expression levels of αSMA. Data were analyzed by gating on single cells and determining the geometric Mean Fluorescence Intensity (gMFI) in the FITC channel for each sample. gMFI for each sample was normalized to the untreated control and presented as % inhibition.
In addition to the binding abilities described above, it is important for an anti-α11β1 antibody to inhibit the fibroblast-to-myofibroblast transition (FMT). It is now appreciated that myofibroblasts are a heterogeneous cell population, existing in different activation states, with the main function of producing and contracting collagen extracellular matrix (ECM). FMT is a multi-step event that is controlled by a changing mechanical environment in tissues undergoing repair. TGFβ is one of the potent factors that potentiates this process and alpha smooth muscle actin (αSMA) is one of the main markers that becomes overexpressed when fibroblasts are undergoing the transition to becoming myofibroblasts. The presence of αSMA enhances fibroblast contraction and guides myofibroblast activation through an intracellular feedback loop. Because αSMA is the main molecular marker of myofibroblasts, the ability of the novel anti-α11β1 mAbs to inhibit αSMA expression in TGFβ-induced FMT was tested.

Chain of human α11β1 (Q9UKX5 23-1141 limits assumed): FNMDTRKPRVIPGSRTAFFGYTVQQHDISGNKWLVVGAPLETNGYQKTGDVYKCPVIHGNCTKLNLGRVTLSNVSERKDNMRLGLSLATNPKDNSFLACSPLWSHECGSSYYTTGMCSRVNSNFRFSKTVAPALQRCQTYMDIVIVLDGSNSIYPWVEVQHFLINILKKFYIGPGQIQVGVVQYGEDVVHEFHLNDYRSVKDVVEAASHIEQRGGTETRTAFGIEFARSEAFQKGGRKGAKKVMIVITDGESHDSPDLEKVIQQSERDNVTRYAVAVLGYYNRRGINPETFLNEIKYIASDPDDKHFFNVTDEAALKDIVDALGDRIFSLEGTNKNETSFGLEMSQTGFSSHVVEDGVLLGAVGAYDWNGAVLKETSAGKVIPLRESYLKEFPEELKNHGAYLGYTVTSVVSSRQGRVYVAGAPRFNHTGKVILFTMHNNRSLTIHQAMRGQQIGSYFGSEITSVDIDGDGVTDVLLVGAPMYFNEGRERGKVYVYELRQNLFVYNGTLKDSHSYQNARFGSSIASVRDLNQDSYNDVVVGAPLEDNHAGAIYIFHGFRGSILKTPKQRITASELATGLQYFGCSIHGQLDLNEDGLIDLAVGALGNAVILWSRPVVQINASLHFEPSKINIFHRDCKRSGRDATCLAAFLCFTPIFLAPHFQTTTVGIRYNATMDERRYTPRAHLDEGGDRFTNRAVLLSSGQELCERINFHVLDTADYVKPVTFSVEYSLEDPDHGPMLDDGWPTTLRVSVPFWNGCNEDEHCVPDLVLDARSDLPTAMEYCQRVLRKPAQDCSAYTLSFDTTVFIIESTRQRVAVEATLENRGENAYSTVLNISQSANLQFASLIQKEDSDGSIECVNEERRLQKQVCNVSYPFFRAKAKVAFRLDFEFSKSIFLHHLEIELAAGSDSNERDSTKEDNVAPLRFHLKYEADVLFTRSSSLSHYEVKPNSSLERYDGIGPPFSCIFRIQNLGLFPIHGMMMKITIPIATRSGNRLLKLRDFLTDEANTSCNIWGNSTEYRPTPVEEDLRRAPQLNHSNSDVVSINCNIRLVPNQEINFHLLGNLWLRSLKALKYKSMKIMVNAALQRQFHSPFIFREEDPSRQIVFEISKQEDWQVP
Chain of human α11β1 (P05556 21-728 partner limits assumed): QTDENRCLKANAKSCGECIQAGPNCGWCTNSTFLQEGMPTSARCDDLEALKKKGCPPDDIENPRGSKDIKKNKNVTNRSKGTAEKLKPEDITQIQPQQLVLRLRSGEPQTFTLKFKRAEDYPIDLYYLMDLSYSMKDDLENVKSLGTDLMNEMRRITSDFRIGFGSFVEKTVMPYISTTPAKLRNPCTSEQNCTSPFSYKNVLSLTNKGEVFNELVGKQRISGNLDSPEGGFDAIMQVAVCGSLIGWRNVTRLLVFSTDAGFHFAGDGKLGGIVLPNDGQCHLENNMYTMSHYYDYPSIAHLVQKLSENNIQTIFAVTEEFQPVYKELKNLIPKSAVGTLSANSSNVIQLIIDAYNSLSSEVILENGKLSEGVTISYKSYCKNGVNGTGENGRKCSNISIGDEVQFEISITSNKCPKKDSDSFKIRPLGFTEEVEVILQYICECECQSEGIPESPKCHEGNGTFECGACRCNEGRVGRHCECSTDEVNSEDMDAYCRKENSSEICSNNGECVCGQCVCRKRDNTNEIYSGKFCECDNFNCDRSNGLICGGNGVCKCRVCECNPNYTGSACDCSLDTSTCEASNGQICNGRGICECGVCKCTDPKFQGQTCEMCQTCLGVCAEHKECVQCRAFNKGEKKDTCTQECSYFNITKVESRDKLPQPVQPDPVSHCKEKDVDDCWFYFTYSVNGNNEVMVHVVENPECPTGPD
Chain of mouse α11β1 (P61622 23-1141 limits assumed): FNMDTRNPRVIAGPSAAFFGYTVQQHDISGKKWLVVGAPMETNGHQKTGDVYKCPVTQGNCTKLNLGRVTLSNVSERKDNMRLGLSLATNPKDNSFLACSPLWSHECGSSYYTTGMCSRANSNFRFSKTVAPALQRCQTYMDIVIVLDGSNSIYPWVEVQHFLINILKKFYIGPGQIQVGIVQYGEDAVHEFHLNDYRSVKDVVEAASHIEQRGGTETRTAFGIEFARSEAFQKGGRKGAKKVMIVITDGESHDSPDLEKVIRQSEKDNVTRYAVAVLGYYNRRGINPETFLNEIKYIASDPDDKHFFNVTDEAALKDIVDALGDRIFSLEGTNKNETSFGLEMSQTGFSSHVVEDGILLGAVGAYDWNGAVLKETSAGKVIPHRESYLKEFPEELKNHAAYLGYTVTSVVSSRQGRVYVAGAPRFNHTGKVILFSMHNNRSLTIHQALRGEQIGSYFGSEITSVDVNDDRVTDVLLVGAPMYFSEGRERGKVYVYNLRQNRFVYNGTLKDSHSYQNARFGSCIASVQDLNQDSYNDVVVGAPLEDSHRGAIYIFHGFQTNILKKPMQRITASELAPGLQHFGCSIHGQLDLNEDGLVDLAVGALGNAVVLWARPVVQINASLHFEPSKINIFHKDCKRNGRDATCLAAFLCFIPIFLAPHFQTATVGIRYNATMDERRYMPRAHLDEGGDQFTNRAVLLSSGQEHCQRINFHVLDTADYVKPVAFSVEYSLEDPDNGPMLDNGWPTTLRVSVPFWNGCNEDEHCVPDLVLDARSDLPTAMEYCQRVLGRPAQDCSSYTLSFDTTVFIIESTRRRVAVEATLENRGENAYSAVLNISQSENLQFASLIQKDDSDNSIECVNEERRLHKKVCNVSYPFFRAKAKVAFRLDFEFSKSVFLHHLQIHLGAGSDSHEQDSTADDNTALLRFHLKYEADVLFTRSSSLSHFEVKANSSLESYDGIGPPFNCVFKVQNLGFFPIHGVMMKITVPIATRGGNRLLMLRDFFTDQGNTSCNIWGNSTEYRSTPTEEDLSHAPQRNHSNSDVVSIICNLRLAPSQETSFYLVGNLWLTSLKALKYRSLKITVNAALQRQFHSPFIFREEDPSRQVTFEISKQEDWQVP
Chain of mouse α11β1 (P09055 21-728 partner limits assumed): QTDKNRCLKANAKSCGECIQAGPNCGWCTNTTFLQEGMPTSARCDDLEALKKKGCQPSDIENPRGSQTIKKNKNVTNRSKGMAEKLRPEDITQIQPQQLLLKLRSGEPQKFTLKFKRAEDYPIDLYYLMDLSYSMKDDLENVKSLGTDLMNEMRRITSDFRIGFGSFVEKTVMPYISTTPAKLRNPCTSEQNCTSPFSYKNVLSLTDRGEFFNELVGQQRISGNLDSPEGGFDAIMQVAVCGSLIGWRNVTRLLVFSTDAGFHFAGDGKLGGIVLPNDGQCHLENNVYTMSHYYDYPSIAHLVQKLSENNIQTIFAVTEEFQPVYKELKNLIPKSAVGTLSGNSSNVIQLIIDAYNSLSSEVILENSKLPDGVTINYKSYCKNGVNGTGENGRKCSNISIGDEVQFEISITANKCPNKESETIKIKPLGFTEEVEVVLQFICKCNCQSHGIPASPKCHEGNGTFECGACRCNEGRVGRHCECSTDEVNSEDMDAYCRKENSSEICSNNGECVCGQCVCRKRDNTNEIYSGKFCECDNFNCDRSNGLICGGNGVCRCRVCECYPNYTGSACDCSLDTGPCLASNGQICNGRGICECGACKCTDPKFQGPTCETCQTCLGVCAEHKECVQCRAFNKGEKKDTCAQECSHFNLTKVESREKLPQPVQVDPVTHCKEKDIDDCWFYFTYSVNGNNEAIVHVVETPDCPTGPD

Row | Molecule | Human α11β1 ELISA (human α11β1) | I-domain binder (I domain of α11β1) | I Domain binding (I domain of α11β1) | MF FACS (myofibroblasts (MF)) | inhibition of cell adhesion to type I collagen [1] | Inhibition of CHO-K1 adhesion to collagen [1] | Murine α11β1 ELISA (mouse α11β1) | inhibition of αSMA expression / FMT [2] | Inhibition of FMT [2]
1 | B1 | Yes | did not bind to the I-domain; also recorded: neither of the antibodies was found to be an I-domain binder | No | Yes | nor did it inhibit cell adhesion | No | No/Low | significantly inhibited αSMA expression | Yes
2 | B2 | Yes | – | No | Yes | didn't have an effect on cell adhesion | No | Yes | inhibit FMT | Yes
3 | B3 | Yes | – | No | No | – | No | Yes/Low | – | No
4 | B4 | Yes | – | Yes | Yes | – | Yes | Yes/Low | – | No
5 | B5 | Yes | – | No | No | – | No | No | – | No
6 | B6 | Yes | – | No | No | – | No | Yes/Low | – | No
